The target of one test is T1, human GIP receptor (human, UniProt P48546 22-466).
T1 construct: whole, on cells; Used as crude membranes of stably transfected CHO cells; also called hGIPR
T1 sequence (looked up): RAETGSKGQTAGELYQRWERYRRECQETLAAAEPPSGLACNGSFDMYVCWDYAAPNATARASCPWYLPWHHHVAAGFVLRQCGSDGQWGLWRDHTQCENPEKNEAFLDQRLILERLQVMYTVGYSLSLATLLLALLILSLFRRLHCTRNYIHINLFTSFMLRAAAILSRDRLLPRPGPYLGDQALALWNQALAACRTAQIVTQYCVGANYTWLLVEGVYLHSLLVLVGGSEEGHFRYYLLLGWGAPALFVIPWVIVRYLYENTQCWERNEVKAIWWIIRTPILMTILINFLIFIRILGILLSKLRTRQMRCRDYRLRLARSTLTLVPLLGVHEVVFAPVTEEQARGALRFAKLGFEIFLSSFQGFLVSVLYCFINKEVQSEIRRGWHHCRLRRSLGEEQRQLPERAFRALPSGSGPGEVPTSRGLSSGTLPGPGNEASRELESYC
Description: SPA, [125I]-GIP displacement, hGIPR membranes.

Another test has as its target T2, human GLP-1 receptor (human, UniProt P43220 24-463).
T2 construct: whole, on cells; Used as crude membranes of stably transfected HEK293 cells; also called hGLP1R; hGLP-1R
The experiment in a line: SPA, [125I]-GLP-1 displacement, hGLP-1R membranes.

In the next test the target is T3, human glucagon receptor (human, UniProt P47871 26-477).
T3 construct: whole, on cells; Used as crude membranes of stably transfected HEK293 cells; also called hGcgR; hGLcgR
The experiment in a line: SPA, [125I]-Gcg displacement, hGcgR membranes.

What is called Ki is the dissociation constant of the complex between target and ligand, obtained from inhibition or displacement. Lower therefore signals a stronger hold on the target.

Numbered stars: 1 amine (or outer) side, 2 acyl side, 3 side chain; on linkers, the order of the positions; unused ones are H or OH. Square brackets hold non-standard residues; d marks the D form. Side chains are listed from the residue outwards. Ends that are not written are not given here. * marks the point of attachment. C20 diacid = O=C(O)CCCCCCCCCCCCCCCCCCC(=O)*; γGlu = O=C(O)[C@H](CCC(=O)[*:2])N[*:1]; αMeL = CC(C)C[C@](C)(N)C(=O)O; αMeK = C[C@](N)(CCCCN)C(=O)O; AEEA = NCCOCCOCC(=O)O; Aib = CC(C)(N)C(=O)O

T3 sequence (P47871 26-477): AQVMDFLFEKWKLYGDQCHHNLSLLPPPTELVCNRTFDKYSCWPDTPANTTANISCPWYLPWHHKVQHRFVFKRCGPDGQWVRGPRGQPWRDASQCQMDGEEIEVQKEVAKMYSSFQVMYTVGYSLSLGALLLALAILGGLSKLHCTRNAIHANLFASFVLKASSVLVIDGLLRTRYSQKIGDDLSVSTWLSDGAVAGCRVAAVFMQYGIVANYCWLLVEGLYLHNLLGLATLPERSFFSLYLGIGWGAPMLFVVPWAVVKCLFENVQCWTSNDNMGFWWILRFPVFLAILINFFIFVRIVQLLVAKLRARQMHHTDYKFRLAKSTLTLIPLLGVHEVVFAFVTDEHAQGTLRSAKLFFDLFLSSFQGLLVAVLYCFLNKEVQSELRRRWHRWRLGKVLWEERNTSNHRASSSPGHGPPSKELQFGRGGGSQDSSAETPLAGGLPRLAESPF

B1: Example 50 (peptide)
peptide: Y[Aib]EGTFTSDYSILLDKK([AEEA-AEEA-γGlu-C20 diacid])AQ[Aib]AFIEYLIEGGPSSG-NH2
modifications: N-terminus assumed
SMILES: CC[C@H](C)[C@H](NC(=O)[C@H](CC(C)C)NC(=O)[C@H](Cc1ccc(O)cc1)NC(=O)[C@H](CCC(=O)O)NC(=O)[C@@H](NC(=O)[C@H](Cc1ccccc1)NC(=O)[C@H](C)NC(=O)C(C)(C)NC(=O)[C@H](CCC(N)=O)NC(=O)[C@H](C)NC(=O)[C@H](CCCCNC(=O)COCCOCCNC(=O)COCCOCCNC(=O)CC[C@H](NC(=O)CCCCCCCCCCCCCCCCCCC(=O)O)C(=O)O)NC(=O)[C@H](CCCCN)NC(=O)[C@H](CC(=O)O)NC(=O)[C@H](CC(C)C)NC(=O)[C@H](CC(C)C)NC(=O)[C@@H](NC(=O)[C@H](CO)NC(=O)[C@H](Cc1ccc(O)cc1)NC(=O)[C@H](CC(=O)O)NC(=O)[C@H](CO)NC(=O)[C@@H](NC(=O)[C@H](Cc1ccccc1)NC(=O)[C@@H](NC(=O)CNC(=O)[C@H](CCC(=O)O)NC(=O)C(C)(C)NC(=O)[C@@H](N)Cc1ccc(O)cc1)[C@@H](C)O)[C@@H](C)O)[C@@H](C)CC)[C@@H](C)CC)C(=O)N[C@@H](CCC(=O)O)C(=O)NCC(=O)NCC(=O)N1CCC[C@H]1C(=O)N[C@@H](CO)C(=O)N[C@@H](CO)C(=O)NCC(N)=O
As to B1, the Ki is 0.0568 nM with human GIP receptor, 4.71 nM in the test with human GLP-1 receptor and 220 nM with human glucagon receptor.

B2: Example 49 (peptide)
peptide: Y[Aib]EGTFTSDYSILLDKIAQ[Aib]AFIEYLIEGGPSSGAPPPSK([AEEA-AEEA-γGlu-C20 diacid])-NH2
modifications: N-terminus assumed
SMILES: CC[C@H](C)[C@H](NC(=O)[C@H](CCCCN)NC(=O)[C@H](CC(=O)O)NC(=O)[C@H](CC(C)C)NC(=O)[C@H](CC(C)C)NC(=O)[C@@H](NC(=O)[C@H](CO)NC(=O)[C@H](Cc1ccc(O)cc1)NC(=O)[C@H](CC(=O)O)NC(=O)[C@H](CO)NC(=O)[C@@H](NC(=O)[C@H](Cc1ccccc1)NC(=O)[C@@H](NC(=O)CNC(=O)[C@H](CCC(=O)O)NC(=O)C(C)(C)NC(=O)[C@@H](N)Cc1ccc(O)cc1)[C@@H](C)O)[C@@H](C)O)[C@@H](C)CC)C(=O)N[C@@H](C)C(=O)N[C@@H](CCC(N)=O)C(=O)NC(C)(C)C(=O)N[C@@H](C)C(=O)N[C@@H](Cc1ccccc1)C(=O)N[C@H](C(=O)N[C@@H](CCC(=O)O)C(=O)N[C@@H](Cc1ccc(O)cc1)C(=O)N[C@@H](CC(C)C)C(=O)N[C@H](C(=O)N[C@@H](CCC(=O)O)C(=O)NCC(=O)NCC(=O)N1CCC[C@H]1C(=O)N[C@@H](CO)C(=O)N[C@@H](CO)C(=O)NCC(=O)N[C@@H](C)C(=O)N1CCC[C@H]1C(=O)N1CCC[C@H]1C(=O)N1CCC[C@H]1C(=O)N[C@@H](CO)C(=O)N[C@@H](CCCCNC(=O)COCCOCCNC(=O)COCCOCCNC(=O)CC[C@H](NC(=O)CCCCCCCCCCCCCCCCCCC(=O)O)C(=O)O)C(N)=O)[C@@H](C)CC)[C@@H](C)CC
For B2, the results for the inhibitory constant (Ki) in the test with human GIP receptor, with human GLP-1 receptor and with human glucagon receptor were 0.087 nM, 12.3 nM and 236 nM, respectively.

B3: Example 2 (peptide)
peptide: YXEGTXTSDYSIXLDXKAQXEFIXYLIEGGPSSGAPPPS
modifications: Aib2; αMeF(2F)6; αMeL13; Orn16; K17((2-[2-(2-Amino-ethoxy)-ethoxy]-acetyl)2-(γ-Glu)-CO-(CH2)16-CO2H); Aib20; D-Glu24; C-terminal NH2
Take B3: the Ki in the test with human GIP receptor was 0.06 nM; with human GLP-1 receptor it was 2.35 nM; with human glucagon receptor it was 361 nM.

B4: Example 59 (peptide)
peptide: YXEGTFTSDYSIXLDEKAQXAFIEYLIEGGPSSGAPPPS
modifications: Aib2; αMeL13; K17((2-[2-(2-Amino-ethoxy)-ethoxy]-acetyl)2-(γ-Glu)-CO-(CH2)18-CO2H); Aib20; C-terminal NH2
For B4, the Ki worked out at 0.136 nM in the test with human GIP receptor, 8.2 nM with human GLP-1 receptor and 292 nM in the test with human glucagon receptor.

B5: Example 20 (peptide)
peptide: YXEGTFTSDYSIXLDKKAQXAFIEYLIEGGPSSGAPPPS
modifications: Aib2; αMeL13; K17((2-[2-(2-Amino-ethoxy)-ethoxy]-acetyl)2-(γ-Glu)-CO-(CH2)18-CO2H); Aib20; C-terminal NH2
Take B5: the Ki worked out at 0.0849 nM with human GIP receptor, 3.3 nM with human GLP-1 receptor and 228 nM with human glucagon receptor.

B6: Example 21 (peptide)
peptide: Y[Aib]EGTFTSDYSI[αMeL]LDEK([AEEA-AEEA-γGlu-C20 diacid])AQ[αMeK]AFIEYLLEGGPSSGAPPPS-NH2
modifications: N-terminus assumed
SMILES: CC[C@H](C)[C@H](NC(=O)[C@H](Cc1ccccc1)NC(=O)[C@H](C)NC(=O)[C@](C)(CCCCN)NC(=O)[C@H](CCC(N)=O)NC(=O)[C@H](C)NC(=O)[C@H](CCCCNC(=O)COCCOCCNC(=O)COCCOCCNC(=O)CC[C@H](NC(=O)CCCCCCCCCCCCCCCCCCC(=O)O)C(=O)O)NC(=O)[C@H](CCC(=O)O)NC(=O)[C@H](CC(=O)O)NC(=O)[C@H](CC(C)C)NC(=O)[C@](C)(CC(C)C)NC(=O)[C@@H](NC(=O)[C@H](CO)NC(=O)[C@H](Cc1ccc(O)cc1)NC(=O)[C@H](CC(=O)O)NC(=O)[C@H](CO)NC(=O)[C@@H](NC(=O)[C@H](Cc1ccccc1)NC(=O)[C@@H](NC(=O)CNC(=O)[C@H](CCC(=O)O)NC(=O)C(C)(C)NC(=O)[C@@H](N)Cc1ccc(O)cc1)[C@@H](C)O)[C@@H](C)O)[C@@H](C)CC)C(=O)N[C@@H](CCC(=O)O)C(=O)N[C@@H](Cc1ccc(O)cc1)C(=O)N[C@@H](CC(C)C)C(=O)N[C@@H](CC(C)C)C(=O)N[C@@H](CCC(=O)O)C(=O)NCC(=O)NCC(=O)N1CCC[C@H]1C(=O)N[C@@H](CO)C(=O)N[C@@H](CO)C(=O)NCC(=O)N[C@@H](C)C(=O)N1CCC[C@H]1C(=O)N1CCC[C@H]1C(=O)N1CCC[C@H]1C(=O)N[C@@H](CO)C(N)=O
On to B6, for which the inhibitory constant (Ki) is 0.529 nM in the test with human GIP receptor, 14.5 nM with human GLP-1 receptor and 149 nM in the test with human glucagon receptor.

B7: Example 53 (peptide)
peptide: HXEGTFTSDYSIXLDKKAQXAFIEYLIEGGPSSGAPPPS
modifications: Aib2; αMeL13; K17((2-[2-(2-Amino-ethoxy)-ethoxy]-acetyl)2-(γ-Glu)-CO-(CH2)18-CO2H); Aib20; C-terminal NH2
For the molecule B7, the results for the Ki with human GIP receptor, in the test with human GLP-1 receptor and in the test with human glucagon receptor were 0.188 nM, 1.23 nM and 216 nM, respectively.

B8: Example 66 (peptide)
peptide: YXEGTFTSDYSIXLDEKAQXAFIEYLLEGGPSSGAPPPS
modifications: Aib2; αMeL13; K17((2-[2-(2-Amino-ethoxy)-ethoxy]-acetyl)2-(γ-Glu)-CO-(CH2)18-CO2H); Aib20; C-terminal NH2
Turning to B8, the Ki worked out at 0.106 nM in the test with human GIP receptor, 7.53 nM with human GLP-1 receptor and 93.7 nM with human glucagon receptor.

B9: Example 61 (peptide)
peptide: YXEGTFTSDYSIXLDSKAQXAFIEYLLEGGPSSGAPPPS
modifications: Aib2; αMeL13; K17((2-[2-(2-Amino-ethoxy)-ethoxy]-acetyl)2-(γ-Glu)-CO-(CH2)18-CO2H); Aib20; C-terminal NH2
On to B9, for which the values for the Ki in the test with human GIP receptor, with human GLP-1 receptor and with human glucagon receptor were 0.102 nM, 11.1 nM and 110 nM, respectively.

B10: Example 54 (peptide)
peptide: H[Aib]EGTFTSDYSI[αMeL]LDKK([AEEA-AEEA-γGlu-C20 diacid])AQHAFIEYLIEGGPSSGAPPPS-NH2
modifications: N-terminus assumed
SMILES: CC[C@H](C)[C@H](NC(=O)[C@H](CC(C)C)NC(=O)[C@H](Cc1ccc(O)cc1)NC(=O)[C@H](CCC(=O)O)NC(=O)[C@@H](NC(=O)[C@H](Cc1ccccc1)NC(=O)[C@H](C)NC(=O)[C@H](Cc1c[nH]cn1)NC(=O)[C@H](CCC(N)=O)NC(=O)[C@H](C)NC(=O)[C@H](CCCCNC(=O)COCCOCCNC(=O)COCCOCCNC(=O)CC[C@H](NC(=O)CCCCCCCCCCCCCCCCCCC(=O)O)C(=O)O)NC(=O)[C@H](CCCCN)NC(=O)[C@H](CC(=O)O)NC(=O)[C@H](CC(C)C)NC(=O)[C@](C)(CC(C)C)NC(=O)[C@@H](NC(=O)[C@H](CO)NC(=O)[C@H](Cc1ccc(O)cc1)NC(=O)[C@H](CC(=O)O)NC(=O)[C@H](CO)NC(=O)[C@@H](NC(=O)[C@H](Cc1ccccc1)NC(=O)[C@@H](NC(=O)CNC(=O)[C@H](CCC(=O)O)NC(=O)C(C)(C)NC(=O)[C@@H](N)Cc1c[nH]cn1)[C@@H](C)O)[C@@H](C)O)[C@@H](C)CC)[C@@H](C)CC)C(=O)N[C@@H](CCC(=O)O)C(=O)NCC(=O)NCC(=O)N1CCC[C@H]1C(=O)N[C@@H](CO)C(=O)N[C@@H](CO)C(=O)NCC(=O)N[C@@H](C)C(=O)N1CCC[C@H]1C(=O)N1CCC[C@H]1C(=O)N1CCC[C@H]1C(=O)N[C@@H](CO)C(N)=O
For B10, the Ki in the test with human GIP receptor is 0.965 nM; with human GLP-1 receptor it was 1.66 nM; in the test with human glucagon receptor, 333 nM.

B11: Example 51 (peptide)
peptide: Y[Aib]EGTFTSDYSILLDKK([AEEA-AEEA-γGlu-C20 diacid])AQ[Aib]AFIEYLIEGG-NH2
modifications: N-terminus assumed
SMILES: CC[C@H](C)[C@H](NC(=O)[C@H](CC(C)C)NC(=O)[C@H](Cc1ccc(O)cc1)NC(=O)[C@H](CCC(=O)O)NC(=O)[C@@H](NC(=O)[C@H](Cc1ccccc1)NC(=O)[C@H](C)NC(=O)C(C)(C)NC(=O)[C@H](CCC(N)=O)NC(=O)[C@H](C)NC(=O)[C@H](CCCCNC(=O)COCCOCCNC(=O)COCCOCCNC(=O)CC[C@H](NC(=O)CCCCCCCCCCCCCCCCCCC(=O)O)C(=O)O)NC(=O)[C@H](CCCCN)NC(=O)[C@H](CC(=O)O)NC(=O)[C@H](CC(C)C)NC(=O)[C@H](CC(C)C)NC(=O)[C@@H](NC(=O)[C@H](CO)NC(=O)[C@H](Cc1ccc(O)cc1)NC(=O)[C@H](CC(=O)O)NC(=O)[C@H](CO)NC(=O)[C@@H](NC(=O)[C@H](Cc1ccccc1)NC(=O)[C@@H](NC(=O)CNC(=O)[C@H](CCC(=O)O)NC(=O)C(C)(C)NC(=O)[C@@H](N)Cc1ccc(O)cc1)[C@@H](C)O)[C@@H](C)O)[C@@H](C)CC)[C@@H](C)CC)C(=O)N[C@@H](CCC(=O)O)C(=O)NCC(=O)NCC(N)=O
On to B11, for which the Ki came to 0.062 nM with human GIP receptor, 5.62 nM with human GLP-1 receptor and 195 nM in the test with human glucagon receptor.
